Data from a protein production outcome set (Wang et al. 2014).

assay: label from the status in PepcDB records
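Note: failed if final PepcDB status was selected cloned or expressed and not failed if soluble or beyond.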

Question: With “AIAREWKSQDAWKQHSLRLCFGVWPGTEFLHRPRAVHRRSGVVCSQMQTEDSHPETPQVPKESLQEEKDSSPATDASFIQSQDGKTVFLDRRTERRIQRGFVLTERGPRSIWKPAGTSSQRNERVPRRAAARGGAGPPDTTPQLATVRVLVLGANHVAQRLAELLSSHSRVCGCYFVSETTDEAAIESMKKYAYALPLRSALNDDEVVRVAEWVLADYVFLVPTGETHDDGVSLKDKERLERTLAQNRVTFMDENLTGLLLENPSLIDALFRARDSLEA” as the sequence, how does the protein production read?
Answer: failed

Question: Which protein production does the source give for “AIARGHGTYMDEDRLTASVAGQVERVNKLICVKPLKTRYNGEVGDVVVGRITEVQQKRWKVETNSRLDSVLLLSAVNLPGGELRRRSTQDELAMRDYLQEGDLISAEVQSIFSDGALSLHTRSLKYGKLGQGVLVYVSPSLVKRQKTHFHNLPCGASLILGNNGYVWLSPTPALQEEQAGGFYTSMEPVSLSDREVVSRLRNCLLALANQKVLLFDTSVLYCYEASLQHQIKDILKPEIMEEIVLETRQRLMEHEG” here?
Answer: not failed

Question: For “AIASEVSCKKRDDYLEWPEYFMAVAFLSAQRSKDPNSQVGACIVNSENKIVGIGYNGMPNGCSDDVLPWRRTAENKLDTKYPYVCHAELNAIMNKNLTDVKGCSMYVALFPCNECAKLIIQAGIKEVIFMSDKYHDSDEATAARLLFNMAGVTFRKFIPKCSKIVIDFDSINSRPSQKLQ”, which protein production is on record?
Answer: failed

Question: Which protein production does the source give for “AIATDCEWFDMTWGSSASSGYCSQSDSDEHELELFYTARTSLRKSRKCRDKDEQSEVDWRKQDLSVTEIQQKVKEYNAQVNSNLFMVLNRDGSYTGFIKVQFKLARPVSLPPPRSVSSSSISSSCLGWDGGCQERTSFYLPRDTVKHLHISSSTRAREVIQALLNKFTVVDNPAKYSLYERSQRDNQVYLRKLADDECPLFLRLCAGPNEKVLSLVLKENETGEVNWDAFSFPELQNFLRILQREEEDHVRQIIRRYTLARDKMKEAMKNFSTPG” here?
Answer: failed

Question: With “AIEVEKNNKGINLSFDIEFYPNSFQILQKEYKKIDLIAKLLEKFKKNNILIEGHTEQFGLEEEMHELSEKRARAIGNYLIKMKVKDKDQILFKGWGSQKPKYPKSSPLKAKNRRVEITILN” as the sequence, how does the protein production read?
Answer: not failed

Question: Which protein production does the source give for “AIKHVKGNGKRTLYIFSDPDCPYCQRLEKELTAVDNVTIYLFLFPLTTLHPNAETIATQIWCSKNQYQAWQDYLLNHKAPTASQKCSTPIQKNLALGQKLNINGTPTMYLKNGERIAGAMQAGQLNTLLDQAQ” here?
Answer: failed

Question: For “ALAERRLFAELVDHSVVNVHVVDKDLRWLAVNRQARHDFHLLYGRTPEIGDYLPGLFEDGTAGQTPILPMWQRALAGEQFIEIGTFGKPPAVRHYELRFNALRDPKGEVQGAFLFAYDISERVQEQERLAKAEAALRQAQKMEAVGQLSGGIAHDFNNLLGGI”, which protein production is on record?
Answer: failed

Question: Which protein production does the source give for “ALPELRLEQFIITGASKRGWSAWLTAMADDRVIAIVPSVIDVADTSSMLEGLRKRYGGSWPLALWSYQAAEVLQQLGSPAFARLMALMDPMQYLDEPGARLKIPKYLVSASGDDFFAPDHATDYLQRLPGQTSLRVLPNSDHGGVRAHVVTTLVPMVQRIQASL” here?
Answer: failed

Question: For “ALSDGVHKIEFEHGTTSGKRVVYVDGKEEIRKEWMFKLVGKETFYVGAAKTKATINIDAISGFAYEYTLEINGKSLKKYMEDRSKTTNTWVLHMDGENFRIVLEKDAMDVWCNGKKLETAGEFVDDGTETHFSIGNHDCYIKAVSSGKRKEGIIHTLIVDNREIPEIAS”, which protein production is on record?
Answer: failed

Question: With “ANLYWFRADWFERPDLKKKFKDKYGYELGVPVNWSAYEDIAKFFSEDVKEIDGKKVFGHMDYGKKDPSLGWRFTDAWFSMAGSGDKGLPNGLPVDEWGIRVEDCHPVGSSITRGGDTNGPAAVFATQKYIDWLKAYAPPEAAGMTFSESGPVPSQGNVAQQIFWYTAFTADMTKPGLPVMNADGTPKWRMAPSPKGPYWKEGMKLGYQDVGSWTFLKSSDEKKRLAAWLYAQFVTSKSVSLKKTIVGLTPIRESDINS” as the sequence, how does the protein production read?
Answer: failed

Question: For “APIKGVTFGEDTVWEVQGYKNVRITFELDERVDKVLNEKCSVYTVESGTEVTEFACVVAEAVVKTLQPVSDLLTNMGIDLDEWSVATFYLFDDAGEENFSSRMYCSFYPPDE”, which protein production is on record?
Answer: not failed

Question: With “APIPERAQVSVPGPVRVVDFDTPQSVALFVQPGIDRDDPDFFTAYILNHIIGGGGFESRLMQEVREKRGLTYGVYSYLLPKDLASIYMGSVASANDKIAEAVNVIRDVWRDVAANGVTAKELEDAKTYLTGAYPLRFDGNGRIANILAGMQIQGLPIDYIATRNDQVNAVTLEEINTFAAGFLDPEGLSFTVVGKPVGL” as the sequence, how does the protein production read?
Answer: failed

Question: Which protein production does the source give for “AQNEKNMYSYKKIGNKYIVSINNHTEIVKALNAFCKEKGILSGSINGIGAIGELTLRFFNPKTKAYDDKTFREQMEISNLTGNISSMNEQVYLHLHITVGRSDYSALAGHLLSAIQNGAGEFVVEDYSERISRTYNPDLGLNIYDFER” here?
Answer: not failed

Question: With “AQNFSDYFTNKTLRIDYLFTGNADKQSICLDELSELPVWAGRRHHLSELPLEGNGQIVMRDVASGKVIYTTSFSSLFQEWLETDEAKEVTKGFENTYLLPYPIKPAEVEITLRNNKREVSANLKHVVKPDDILIHKKGLTHITPHKYLLKSGNEEQCIDVAILAEGYTTSEMETFYKDAAIACEALFSHEPFQSMKNRFNIVAVASPSADSGVSAPKQGAWKHTAFGSHFDTFYSDRYLTTSRVKAINDALAGIPYEHIIILANTEQYGGGGIYNAFTLTTAHHPNFRPVVVHEFGHSFGGLADEYFYDEDVMNGLYPLNIEPWEQNITTRINFASKWEDMLTKTTPVPTPVADKAKYPIGVYEGGGYSAKGIYRPAFDCRMRTNEYPTFCPVCQRAIQRIIEFYTGK” as the sequence, how does the protein production read?
Answer: not failed

Question: For “AQTPAQPQGKGIFQSVSEAIDAAHQAFLRYQQCPLKTRSAIISAMRQELTPLLATLAEESANETGMGNKEDKFLKNKAALDNTPGVEDLTTTALTGDGGMVLFEYSPFGVIGSVAPSTNPTETIINNSISMLAAGNSIYFSPHPGAKKVSLKLISLIEEIAFRCCGIRNLVVTVAEPTFEATQQMMAHPRIAVLAITGGPGIVAMGMKSGKKVIGAGNPPCIVDETADLVKAAEDIINGASFDYNLPCIAE”, which protein production is on record?
Answer: failed

Question: With “ARHPDLVSCLTLLQAGDVAAFTVWKAARDPKGVLATPILGHVAMRRMAPKRMPAWYALSVGKADMISELCRCAERSFQHGAQWSLASAYQCYMDPAVELPRPHQPLLSIWGGADFSHPAGNEHSIRRLRPDAVCVTFDDLGHTPELEDPIRVFDAIVRFCEA” as the sequence, how does the protein production read?
Answer: failed

Question: For “ARRPMNAFLLFCKRHRSLVRQEHPRLDNRGATKILADWWAVLDPKEKQKYTDMAKEYKDAFMKANPGYR”, which protein production is on record?
Answer: not failed

Question: Which protein production does the source give for “ASATETNTAPSADTQAPKPVNTVTSDVDCSVSAAWGLYKFNQKSNFSAEFEMPESVKAGTGFDALIKIKDISVSNDNLSGYKNAKLTKSSIRINVGKNVKLDGNQPGLSLSNGVLSINDHLKASLEGNSLRISAAPITVRLQALTEGTLTFIPEKTILTNTASVDGYTANTTCTTNADKPFATVKVDPADGLTITAPESASIKQDVQITATVPEKLNEKMDGKVQFFVNHIAAGDPVPVTEDNKASTSIIFDTSGSKTITARFIDAEGYNPAPDGETIIPVVTELDTKKPEDTDSYTGLINGSATSLLKPAKVMPGEKVSVSASLLPNKAPIRVYEIGINAPEDVKYIDGTGKTNYSSKLATTGSVFSSPGSGYYDPEWKNESKKPNESYRGFHSDTSYSVVDTSPQTVSAEFEIPKTLAPGIYMFQMGVYKYSNSLKDLVSIPETAFEIAGPDLPALPERKIKPQPEETPEVSDGSSTAKLVKSP” here?
Answer: not failed

Question: For “ASIYKNKKSHEQLSALKGSFCRNQFPGQSEVEHLTKVTGLSTREVRKWFSDRRYHCRNLKGSR”, which protein production is on record?
Answer: not failed

Question: For “ASVVLDFLTSDDFPAVAELGAAIWHKHFIGMISREQIDYMVSSRYTPQRLGRYLDAPDRWFRLLRVDGRPVGYCSYALTGQPGEMKLEQLYLLEEMRGWGLGGRMMDEAEAAARALGCATLMLTVNRHNAGAIAVYQKRGFAVREEVVADIGNGFVMDDYMMEKLLSR”, which protein production is on record?
Answer: failed

Question: For “ATEEFIIRIPPYHYIHVLDQNSNVSRVEVGPKTYIRQDNERVLFAPMRMVTVPPRHYCTVANPVSRDAQGLVLFDVTGQVRLRHADLEIRLAQDPFPLYPGEVLEKDITP”, which protein production is on record?
Answer: failed

Question: Which protein production does the source give for “ATHTLQLAIGDEPTEGFDPMLGWSHGSYLLLHSPLLKQNEDFSWDSLLLSQYQPSDDGKTWLLTLKPDLKFSDGSPLTAKDVAFTYNNAAASGGKVDMGNFLSAEVIDPLNVRIHLKAPQSTFVNVLGSLGIVSADKYNAKTYAQKPIGAGPYRLVSFQPGQQMIVEANPYYAGNKNDFDKLIFVFLDEDSAFAAAQSGQLGVVRIPPSMAVGSVNNMKLWVRPSVENRGIVFPTTPAGKKDAHGYPIGNDVTADVAIRRAINYAINRQLLADQIMEGHAIPAYTGVQGLPWNNPDSAIKDGDIDKAKQILEQAGWQLNSQGTREKNGLPAKITLWYTSGDTTRRDLAQALRSMLKPIGIDVDLKSGSWETVERNMHANPTLFGWGSLDPMELYHHYSSNAAGVEYYNPGYYKNPMVDKHLQQALDAPTWQQAVPFWQQVDWDGTTGAGIRGDAAWAWLLNIQHTYLANNCVDLGKGTPEIHGSWSLLNSIDSWK” here?
Answer: not failed

Question: Which protein production does the source give for “AVSGLYSSSDDVIELTPSNFNREVIQSDGLWLVEFYAPWCGHCQRLTPEWKKAATALKDVVKVGAVNADKHQSLGGQYGVQGFPTIKIFGANKNKPEDYQGGRTGEAIVDAALSALR” here?
Answer: not failed

Question: Which protein production does the source give for “AYQPIRYRETGKVGELTFEFYNGAMSTEQCQRLVSALRWAKARDTQVLLVRGGRGAFSNGVHLNVIQAAEVPGLEAWANIQAIDDVCLELLTARQLVVSGLTGNAGAGGLMLALAADVVLARADTVYNPHYKSMGLYGSEYWTYSLPRAVGQAMAKQLTEACLPISALQALQMGMVQEIGPRC” here?
Answer: failed

Question: Which protein production does the source give for “CSGKEALDYFKEDPQMFDMYHTGYQQQMSNWPELPVNSIINWLLSNSSSLVVADFGCGDARIAKSVKNKVFSFDLVSKNPSVIACDMSNTSLESSSVDVAVFCLSLMGTNYSSYIKEAHRVLRPSGMLLIAEVKSRFDPNNGGADPKDFVKAVCDLGFTSVLKDFSNKMFILFHFKKK” here?
Answer: failed

Question: Which protein production does the source give for “DDDIEQLLEFMHQLPAFANMTMSVRRELCSVMIFEVVEQAGAIILEDGQELDSWYVILNGTVEISHPDGKVENLFMGNSFGITPTLDKQYMHGIVRTKVDDCQFVCIAQQDYWRILNHVEK” here?
Answer: not failed

Question: Which protein production does the source give for “DDFETSLTELEPLEKDAYIVRLVFAGSTTTEPIVSSLSTAYDIKINILEANIKNTKNGTVGFLVLHIPYISSVDFGKFEKELIERQVKMEVLRHG” here?
Answer: not failed

Question: With “DDSLGEAVTTRAEALTIPAVLRARNLLSTTVARTPLVCDGTLPPFVPVAAPPGAATMQTPFHRMLATADDLLFNGVACWALDRDESGTCIGAIHIPLDTWQIEENTVRVNGKAVDPMEVCIFVGIHGGLLTHASETFTDARNLVRAAARVAQNPAALIELRQTNNAQLSPDDVDRIINGYVAARRGRNSGVGFSSSGLEVHEHEMAKENLLIEGRNAAAVDVARAMNVPAAFIDATVGGTSLSYQNAASRMIELVTFGVEPLMSAIEARLNQPDMHADHLANPLKFDPAALLDAIPTTPTIG” as the sequence, how does the protein production read?
Answer: not failed

Question: For “DDSSDPKTSKSATSSEASSAAEAAPAELPTAEELNAILAVATDPAAPVEQKVATVQGGETAPELFETMTASKQESGANFQ”, which protein production is on record?
Answer: failed

Question: For “DDVTLLTVPGWGNSGDTHWHGYWEKTYPLARRAEQRDWLYPTRDEWVAGLAAAVAEIPGKLVIAAHSLGCHTTVAWLLQATLLEQRKVKGALLVAPPAIPLTDERARASGELPEGAPLPTFAGFETLPERKLPVPALLVASRDDPFCEFEEARRMAELWGAEFVDGGMAGHMGSHAGLGSWPAGQRLLQRLI”, which protein production is on record?
Answer: failed

Question: With “DEKGNIVDGDQIMYICSKHLKSEGRLKDDTVVSTVMSNLGFYKALEKEGIKSVQTAVGDRYVVEAMKKDGYNVGGEQSGHLIFLDYNTTGDGLLSAIMLMNTLKATGKPLSELAAEMQKF” as the sequence, how does the protein production read?
Answer: failed
